Molecular target: T1, recombinant human leptin (human, UniProt P41159 22-167, 125I label on the tracer form (125I-leptin, NEN); position not stated)
T1 construct: also called recombinant leptin; 125I-leptin
Experiment: 125I-leptin binding on transfected COS cells

T1 sequence (P41159 22-167 limits assumed): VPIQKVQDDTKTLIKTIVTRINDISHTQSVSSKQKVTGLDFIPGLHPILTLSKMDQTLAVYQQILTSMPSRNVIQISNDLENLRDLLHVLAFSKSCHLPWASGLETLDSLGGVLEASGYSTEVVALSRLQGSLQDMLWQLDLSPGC

binding result: no binding (tested: 0.2 nM)
B1: substitution mutant (420-496)TO(500-632) of the human OB-R (receptor)
chain: FNLSYPITPWRFKLSCMPPNSTYDYFLLPAGLSKNTSNSNGHYETAVEPKFNSSGTHFSNLSKTTFHCCFRSEQDRNCSLCADNIEGKTFVSTVNSLVFQQIDANWNIQCWLKGDLKLFICYVESLFKNLFRNYNYKVHLLYVLPEVLEDSPLVPQKGSFQMVHCNCSVHECCECLVPVPTAKLNDTLLMCLKITSGGVIFQSPLMSVQPINMVKPDPPLGLHMEITDDGNLKISWSSPPLVPFPLQYQVKYSENSTTVIREADKIVSATSLLVDSILPGSSYEVQVRGKRLDGPGIWSDWSTPRVFTTQDVIYFPPKILTSVGSNVSFHCIYKKENKIVPSKEIVWWMNLAEKIPQSQYDVVSDHVSKVTFFNLNETKPRGKFTYDAVYCCNEHECHFQPIFLLSGYTMWIRINHSLGSLDSPPTCVLPDSVVKPLPPSSVKAEITINIGLLKISWEKPVFPENNLQFQIRYGLSGKEVQWKMYEVYDAKSKSVSLPVPDLCAVYAVQVRCKRLDGLGYWSNWSNPAYTVECIFQPIFLLSGYTMWIRINHSLGSLDSPPTCVLPDSVVKPLPPSSVKAEITINIGLLKISWEKPVFPENNLQFQIRYGLSGKEVQWKMYEVYDAKSKSVSLPVPDLCAVYAVQVRCKRLDGLGYWSNWSNPAYTVVMDIKVPMRGPEFWRIINGDTMKKEKNVTLLWKPLMKNDSLCSVQRYVINHHTSCNGTWSEDVGNHTKFTFLWTEQAHTVTVLAINSIGASVANFNLTFSWPMSKVNIVQSLSAYPLNSSCVIVSWILSPSDYKLMYFIIEWKNLNEDGEIKWLRISSSVKKYYIHDHFIPIEKYQFSLYPIFMEGVGKPKIINSFTQDDIEKHQSDAGLYVIVPVIISSSILLLGTLLISHQRMKKLFWEDVPNPKNCSWAQGLNFQKPETFEHLFIKHTASVTCGPLLLEPETISEDISVDTSWKNKDEMMPTTVVSLLSTTDLEKGSVCISDQFNSVNFSEAEGTEVTYEAESQRQPFVKYATLISNSKPSETGEEQGLINSSVTKCFSSKNSPLKDSFSNSSWEIEAQAFFILSDQHPNIISPHLTFSEGLDELLKLEGNFPEENNDKKSIYYLGVTSIKKRESGVLLTDKSRVSCPFPAPCLFTDIRVLQDSCSHFVENNINLGTSSKKTFASYMPQFQTCSTQTHKIMENKMCDLTV
